Source: the supplement of paper PMC10065799, “High-throughput profiling of sequence recognition by tyrosine kinases and SH2 domains using bacterial peptide display” (eLife, 2023)

molecular target: Fes (UniProt P07332); experiment: phosphorylation enrichment, bacterial display (enrichment ratio); higher = better substrate or ligand; peptides without Tyr show the background
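Further: 11-residue human phosphosite peptides and single-mutation variants displayed on the E. coli surface, counted by deep sequencing, each peptide's frequency after selection divided by its frequency in the unselected input library; frequency after pTyr selection over input frequency; kinase dosed for 20-30% of maximal phosphorylation in three min.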

Sequence of Fes (P07332 whole entry, looked up): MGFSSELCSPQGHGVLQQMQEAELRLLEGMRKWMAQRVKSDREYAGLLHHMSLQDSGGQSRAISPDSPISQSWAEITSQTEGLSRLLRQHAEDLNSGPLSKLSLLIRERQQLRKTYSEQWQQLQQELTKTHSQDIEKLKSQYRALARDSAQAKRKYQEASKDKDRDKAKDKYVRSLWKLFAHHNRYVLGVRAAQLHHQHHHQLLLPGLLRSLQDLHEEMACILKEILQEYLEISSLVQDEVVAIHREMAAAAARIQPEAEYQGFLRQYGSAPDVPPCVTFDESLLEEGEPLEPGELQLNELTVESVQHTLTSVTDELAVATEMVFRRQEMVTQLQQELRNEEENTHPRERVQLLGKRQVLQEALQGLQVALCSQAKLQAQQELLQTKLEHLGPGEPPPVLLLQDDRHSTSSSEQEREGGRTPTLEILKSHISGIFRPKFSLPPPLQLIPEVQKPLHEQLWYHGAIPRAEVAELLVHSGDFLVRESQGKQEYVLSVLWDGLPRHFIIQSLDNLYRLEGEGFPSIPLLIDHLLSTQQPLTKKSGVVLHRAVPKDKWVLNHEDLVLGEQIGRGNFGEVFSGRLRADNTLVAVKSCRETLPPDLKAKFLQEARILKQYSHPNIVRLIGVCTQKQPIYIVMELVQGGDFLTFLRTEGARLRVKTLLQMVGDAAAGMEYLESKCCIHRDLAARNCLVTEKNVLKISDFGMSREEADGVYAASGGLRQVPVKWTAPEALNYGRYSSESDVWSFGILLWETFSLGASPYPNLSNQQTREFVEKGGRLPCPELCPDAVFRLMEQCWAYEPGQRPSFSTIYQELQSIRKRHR

Row | Sequence | phosphorylation enrichment
1 | FFRKFYNKSED [RYR1_Y4864] | 0.718
2 | EALDFYGEVKT [PTEN_Y155_R159K] | 1.56
3 | CTTNHYNFMCN [TP53_Y234_I232N_YF] | 0.67
4 | PMWHPYKADVT [TP53TG5_Y255_V257A] | 1.12
5 | GRSTCYWPRPR [GAGE12J_Y10_Y9C] | 0.686
6 | AKKVFYVIETR [SHH_Y253] | 1.26
7 | FLEEEYVKAVG [TF_Y674_G671E_YF] | 1.16
8 | RSSKTYLKTRS [LPL_Y329_M328T] | 0.967
9 | TNIKRYHIAKG [HARS1_Y150_V155G] | 0.479
10 | QNTADYYDLYG [PTPN11_Y62_G60A] | 1.02
11 | MGIMLYGVDSR [PKD1_Y3143_V3138M] | 1.08
12 | TEALFYTDDTA [ADPRS_Y75_YF] | 1.44
13 | VRVQLYDPDYM [CYP4A22_Y100] | 1.27
14 | HFPDVYAWEQL [ALX3_Y181_R183W_YF] | 1.46
15 | RLLRGYDQYAY [HLA-B_Y137_H137Y] | 0.924
16 | SSTAMYSAPGR [PSMB1_Y8] | 0.524
17 | WNEVGYDDIGG [VCP_Y203_L198W] | 1.27
18 | QNTGFYFDLFG [PTPN11_Y62_D61Y_YF] | 2.16
19 | QTLEAYIRCNK [SPAST_Y604_W607C] | 1.36
20 | TTPFNYSFIFK [RAB14_Y8_A4T_YF] | 1.28
21 | SQSPHYFRSGQ [GPATCH8_Y1038_R1043Q] | 0.524
22 | KSPDSYQKILP [ATM_Y1415_L1420P] | 0.584
23 | ERLWVYGMSSS [F8_Y1728_D1727V] | 1.61
24 | EQLRAYLEGLC [HLA-C_Y183_T187L] | 1.58
25 | TIQDAYMHITS [ADCY10_Y318_A313T] | 0.799
26 | SVTCTYSPALK [TP53_Y126_N131K] | 1.02
27 | GGSTYYIDTNA [ACTL6A_Y69_P66S] | 0.998
28 | FLTQHYDAIPQ [ANG_Y38_K41I] | 0.855
29 | DSNPIYSQIWS [FCRL3_Y662] | 14.4

molecular target: Fyn (UniProt P06241); experiment: as above
Sequence (P06241 whole entry, looked up): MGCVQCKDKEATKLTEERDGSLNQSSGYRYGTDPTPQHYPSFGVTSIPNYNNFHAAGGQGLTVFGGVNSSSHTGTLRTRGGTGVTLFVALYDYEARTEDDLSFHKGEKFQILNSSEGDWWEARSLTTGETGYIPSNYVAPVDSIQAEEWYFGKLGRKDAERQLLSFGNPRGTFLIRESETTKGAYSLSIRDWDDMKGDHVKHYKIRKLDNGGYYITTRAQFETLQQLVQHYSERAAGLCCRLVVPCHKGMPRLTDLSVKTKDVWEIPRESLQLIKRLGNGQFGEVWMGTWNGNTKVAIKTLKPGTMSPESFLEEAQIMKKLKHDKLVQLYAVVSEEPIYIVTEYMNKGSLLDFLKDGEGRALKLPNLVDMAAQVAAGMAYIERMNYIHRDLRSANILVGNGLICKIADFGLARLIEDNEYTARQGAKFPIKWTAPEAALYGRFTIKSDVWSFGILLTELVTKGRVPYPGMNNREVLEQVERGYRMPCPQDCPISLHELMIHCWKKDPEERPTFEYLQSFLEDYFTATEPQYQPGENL

Row | Sequence | phosphorylation enrichment
30 | FFRKFYNKSED [RYR1_Y4864] | 0.458
31 | EALDFYGEVKT [PTEN_Y155_R159K] | 1.2
32 | CTTNHYNFMCN [TP53_Y234_I232N_YF] | 0.463
33 | PMWHPYKADVT [TP53TG5_Y255_V257A] | 0.565
34 | GRSTCYWPRPR [GAGE12J_Y10_Y9C] | 0.543
35 | AKKVFYVIETR [SHH_Y253] | 0.465
36 | FLEEEYVKAVG [TF_Y674_G671E_YF] | 0.558
37 | RSSKTYLKTRS [LPL_Y329_M328T] | 0.593
38 | TNIKRYHIAKG [HARS1_Y150_V155G] | 0.409
39 | QNTADYYDLYG [PTPN11_Y62_G60A] | 4.14
40 | MGIMLYGVDSR [PKD1_Y3143_V3138M] | 0.467
41 | TEALFYTDDTA [ADPRS_Y75_YF] | 0.568
42 | VRVQLYDPDYM [CYP4A22_Y100] | 0.493
43 | HFPDVYAWEQL [ALX3_Y181_R183W_YF] | 7.03
44 | RLLRGYDQYAY [HLA-B_Y137_H137Y] | 0.518
45 | SSTAMYSAPGR [PSMB1_Y8] | 0.484
46 | WNEVGYDDIGG [VCP_Y203_L198W] | 0.422
47 | QNTGFYFDLFG [PTPN11_Y62_D61Y_YF] | 0.668
48 | QTLEAYIRCNK [SPAST_Y604_W607C] | 0.438
49 | TTPFNYSFIFK [RAB14_Y8_A4T_YF] | 0.705
50 | SQSPHYFRSGQ [GPATCH8_Y1038_R1043Q] | 0.345
51 | KSPDSYQKILP [ATM_Y1415_L1420P] | 0.427
52 | ERLWVYGMSSS [F8_Y1728_D1727V] | 0.565
53 | EQLRAYLEGLC [HLA-C_Y183_T187L] | 0.482
54 | TIQDAYMHITS [ADCY10_Y318_A313T] | 0.51
55 | SVTCTYSPALK [TP53_Y126_N131K] | 0.467
56 | GGSTYYIDTNA [ACTL6A_Y69_P66S] | 0.955
57 | FLTQHYDAIPQ [ANG_Y38_K41I] | 0.586
58 | DSNPIYSQIWS [FCRL3_Y662] | 12.1
